# Source: patent publication US20040009177A1 (SERVICES, published 2004)
# T1: mouse Fkn (mouse) (UniProt O35188)
# T1 sequence (looked up): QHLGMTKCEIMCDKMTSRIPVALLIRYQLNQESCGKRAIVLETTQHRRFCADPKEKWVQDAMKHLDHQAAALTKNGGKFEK
# T2: CX3CR1 on CX3CR1-transfected human embryonic kidney cells (293-CX3CR1 cells) (UniProt P49238 1-355)
# T2 construct: whole, on cells; also called CX3C receptor; CX3CR1-293 cells
# T2 sequence (looked up): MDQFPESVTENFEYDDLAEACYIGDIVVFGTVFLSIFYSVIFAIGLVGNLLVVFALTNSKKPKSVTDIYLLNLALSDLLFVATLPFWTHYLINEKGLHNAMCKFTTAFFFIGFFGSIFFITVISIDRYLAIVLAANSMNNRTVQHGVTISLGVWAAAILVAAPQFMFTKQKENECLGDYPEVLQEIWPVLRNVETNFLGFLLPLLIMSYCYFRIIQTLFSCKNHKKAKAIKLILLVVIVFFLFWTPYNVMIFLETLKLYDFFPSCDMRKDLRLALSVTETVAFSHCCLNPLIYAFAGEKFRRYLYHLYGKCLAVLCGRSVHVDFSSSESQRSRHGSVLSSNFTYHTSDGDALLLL
# B1: anti-G glycoprotein monoclonal antibody 131-2G (antibody, from another filing, V domains shown)
# VH: EVQLQQSGPELVKPGTSVKISCKASGYSFTGFTMNWVKQSHGKNLEWFGLINPFNGNTGYNQKFKGKATLTVDKSSSTAFMELLSLTSEDSAVYYCARSGKSYDYEAWFTYWGQGTLVTVSA
# VL: DIVMTQTTLSLPVSLGNQASISCRSSQTIVHTNGNTYLEWYLQKPGQSPKLLIYKVSNRFSGVPDRFSGSGSGTDFILNISRVEAEDLGVYYCFQGSHVPFTFGSGTKLEIKR
# B2: G glycoprotein peptide RT33 (peptide)
# peptide: TCWAICKRIPNK
# notes: synthetic 12-mer with the CX3C motif CWAIC
# B3: human fractalkine (R&D Diagnostics) (ligand, UniProt P78423 25-100, looked up)
# chain: QHHGVTKCNITCSKMTSKIPVALLIHYQQNQASCGKRAIILETRQHRLFCADPKEQWVKDAMQHLDRQAAALTRNG
# notes: also called Fkn; human Fkn
# B4: G glycoprotein peptide EYp1, TCAAACKRIPNKK (SEQ ID NO: 5) (peptide)
# peptide: TCAAACKRIPNKK
# notes: 13-mer variant of RT33 with the motif CAAAC
# B5: RSV G glycoprotein, purified from RSV/A2-infected Vero cells (ligand, respiratory syncytial virus, A2 strain, UniProt P03423 1-298, looked up)
# chain: MSKNKDQRTAKTLERTWDTLNHLLFISSCLYKLNLKSVAQITLSILAMIISTSLIIAAIIFIASANHKVTPTTAIIQDATSQIKNTTPTYLTQNPQLGISPSNPSEITSQITTILASTTPGVKSTLQSTTVKTKNTTTTQTQPSKPTTKQRQNKPPSKPNNDFHFEVFNFVPCSICSNNPTCWAICKRIPNKKPGKKTTTKPTKKPTLKTTKKDPKPQTTKSKEVPTTKPTEEPTINTTKTNIITTLLTSNTTGNPELTSQMETFHSTSSEGNPSPSQVSTTSEYPSQPSSPPNTPRQ
# notes: Lectin and Q-Sepharose purified; concentration estimated with a molecular weight of 90 kD; also called attachment protein
# B6: G glycoprotein peptide RT34 (peptide)
# peptide: NKKPGKKTTTKP
# notes: synthetic 12-mer C-terminal to the CX3C motif
# Legend:
# [1] = molecular target: CX3CR1 on naive mouse spleen leukocytes (mouse) (UniProt Q9Z0D9); assay: cell-based or functional assay
# CX3CR1 on naive mouse spleen leukocytes (mouse), sequence (Q9Z0D9 whole entry): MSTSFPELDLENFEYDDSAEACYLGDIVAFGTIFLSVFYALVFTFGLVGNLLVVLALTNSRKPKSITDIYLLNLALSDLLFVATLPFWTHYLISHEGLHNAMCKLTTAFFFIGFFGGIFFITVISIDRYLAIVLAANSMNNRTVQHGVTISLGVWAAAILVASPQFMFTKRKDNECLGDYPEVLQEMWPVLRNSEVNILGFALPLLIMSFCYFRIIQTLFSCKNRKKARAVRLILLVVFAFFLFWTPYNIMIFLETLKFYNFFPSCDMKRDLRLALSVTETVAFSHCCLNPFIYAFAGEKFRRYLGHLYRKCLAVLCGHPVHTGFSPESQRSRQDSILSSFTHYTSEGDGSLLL
# [2] = molecular target: CX3CR1 on Vero cells (African green monkey); assay: cell-based or functional assay
# [3] = molecular target: purified recombinant soluble polyhistidine-tagged G glycoprotein (respiratory syncytial virus) (UniProt P03423); assay: flow cytometry, GHIS on CX3CR1-293 cells with control antibody (68% without)
# [4] = molecular target: RSV G glycoprotein, purified from RSV/A2-infected Vero cells (respiratory syncytial virus, A2 strain) (UniProt P03423); assay: flow cytometry; inhibition of G glycoprotein binding to 293-CX3CR1 cells, in the absence of heparin
# [5] = molecular target: purified recombinant soluble polyhistidine-tagged G glycoprotein (respiratory syncytial virus) (UniProt P03423); assay: flow cytometry; inhibition of polyhistidine-tagged G glycoprotein binding to 293-CX3CR1 cells
# [6] = molecular target: RSV G glycoprotein, purified from RSV/A2-infected Vero cells (respiratory syncytial virus, A2 strain) (UniProt P03423); assay: cell-based or functional assay
# mouse Fkn (mouse) = molecular target: T1, mouse Fkn (mouse); assay: cell-based or functional assay
# [7] = molecular target: purified recombinant soluble polyhistidine-tagged G glycoprotein (respiratory syncytial virus) (UniProt P03423); assay: flow cytometry, GHIS on CX3CR1-293 cells with antibody (68% without)
# [8] = molecular target: T2, CX3CR1 on CX3CR1-transfected human …; assay: flow cytometry, G glycoprotein on CX3CR1-293 cells with competitor peptide (84% without)
# [9] = molecular target: T2, CX3CR1 on CX3CR1-transfected human …; assay: Scatchard analysis; displacement of 1 nM 125I-fractalkine from 293-CX3CR1 cells by unlabeled Fkn, 2 h 37°C with azide; mean±SD of three experiments
# [10] = molecular target: T2, CX3CR1 on CX3CR1-transfected human …; assay: inhibition of G glycoprotein binding to CX3CR1, methods described in the examples (no further detail)
# [11] = molecular target: T2, CX3CR1 on CX3CR1-transfected human …; assay: Scatchard analysis; displacement of 1 nM 125I-fractalkine from 293-CX3CR1 cells by unlabeled G glycoprotein, 2 h 37°C with azide; mean±SD of three experiments
molecule,measurement,setting,value
mouse Fkn (from UniProt O35188 25-105) (ligand),chemotactic index of mouse leukocytes toward G glycoprotein with Fkn as antagonist (chemotactic index),[1],1.2
same,inhibition of mouse leukocyte chemotaxis toward G glycoprotein by Fkn,[1],75%
normal rabbit sera,RSV plaque inhibition (%) on Vero cells; Normal rabbit sera (control),[2],6%
anti-F glycoprotein monoclonal antibody 131-2A,percent positive staining of GHIS in the presence of the antibody,[3],60%
B1,percent inhibition,[4],32 to 48%
same,percent inhibition,[5],80 to 88%
same,chemotactic index of mouse leukocytes toward G glycoprotein with anti-G glycoprotein (131-2G) (chemotactic index),[6],1.1
same,chemotactic index of mouse leukocytes toward Fkn with anti-G glycoprotein (131-2G) (chemotactic index),mouse Fkn (mouse),4.8
same,percent positive staining of GHIS in the presence of the antibody,[7],10%
B2,percent positive staining of G glycoprotein in the presence of the peptide,[8],48%
"TCWACKRIPNK [G glycoprotein peptide ?-1, 11-mer variant of RT33 with a deletion of ILE in the CX3C motif]",percent positive staining of G glycoprotein in the presence of the peptide,[8],73%
B3,Kd,[9],5.8 nM
"VPCSICSNNPTC (synthetic 12-mer, lacks the CX3C motif) [G glycoprotein peptide RT32]",percent positive staining of G glycoprotein in the presence of the peptide,[8],72%
B4,percent inhibition,[10],> 90%
TCWAACKRIPNKK [peptide TCWAACKRIPNKK (SEQ ID NO: 6)],percent inhibition,[10],> 90%
TCDAACKRIPNKK [peptide TCDAACKRIPNKK (SEQ ID NO: 8)],percent inhibition,[10],> 90%
TCMAACKRIPNKK [peptide TCMAACKRIPNKK (SEQ ID NO: 10)],percent inhibition,[10],> 90%
TCFAACKRIPNKK [peptide TCFAACKRIPNKK (SEQ ID NO: 11)],percent inhibition,[10],> 90%
TCNAACKRIPNKK [peptide TCNAACKRIPNKK (SEQ ID NO: 7)],percent inhibition,[10],> 90%
B5,Kd,[11],2.1 nM
B6,percent positive staining of G glycoprotein in the presence of the peptide,[8],74%
